Test results: article PMC7083937, “The ribosome-associated complex RAC serves in a relay that directs nascent chains to Ssb” (Nature Communications, 2020)
Positions count from the first letter of the chain named. Numbers in names are those of the source. Entries after “also recorded” stand apart in the source; their conditions may differ.

Experiments:
[1] = tested on: nascent Pgk1-100; assay: crosslinking to ribosome-bound nascent chain; assay type: binding, Saccharomyces cerevisiae; conditions: BS3
Source text: (§1) DNA templates for transcription reactions were generated by PCR using pSPUTK-Pgk1[20] as a template. Reverse primers were designed such, that PCR products encoded different length PGK1 sequences, which all lacked a stop codon. The length of the resulting translation products, which remain ribosome-bound, is indicated in Results and Figure Legends. Transcripts were generated using SP6 polymerase (Thermo Fischer Scientific) as previously described. RNCs were generated via translation reactions primed with the stop codon-less transcripts at 20 °C in the presence of [^35S]-methionine (Hartmann-Analytic) for 80 min[20],[54]. Translation reactions were stopped by the addition of 50 µg/ml cycloheximide final concentration and subsequently RNCs were isolated via centrifugation at 400.000 g for 20 min in a TLA-100 or TLA-100.2 rotor (Beckman Coulter)[20].
(§2) Chemical crosslinking of ribosome-bound nascent chains to Ssb, Zuo1, or Ssz1 was analyzed essentially as described. In brief, resuspended RNCs were incubated in the presence of 400 µM BS^3 (bis-(sulfosuccinimidyl)-suberate, spacer length 1.14 nm, Thermo Scientific) for 20 min on ice and crosslinking was then quenched by the addition of TRIS base (tris(hydroxymethyl)aminomethane) to a final concentration of 50 mM. Crosslinked protein samples were precipitated by the addition of TCA (final concentration 5%), pellets were collected by centrifugation and were dissolved in dissociation buffer (200 mM TRIS/HCl pH 7.5, 4% SDS; 10 mM EDTA, 100 µg/ml BSA, protease inhibitor mix, 1 mM PMSF). Totals shown in Figs. 1,3 and Supplementary Fig. 1 before (total) and after BS^3 crosslinking (total + BS^3) represent 5% of the dissolved material employed for immunoprecipitation reactions. The resulting denatured protein samples were used to identify crosslink products between Ssb, Zuo1, or Ssz1 and nascent chains via affinity purification under denaturing conditions. To that end, protein A sepharose beads (GE Healthcare) were pre-coated with antibodies directed against Ssb, Zuo1, or Ssz1 and subsequently the denatured crosslinked material was allowed to bind to the beads resuspended in immunoprecipitation buffer (10 mM TRIS/HCl pH 7.5, 150 mM NaCl, 5 mM EDTA, 1% Triton X-100, protease inhibitor mix, 0.5 mM PMSF)[20]. Crosslink products bound to protein A sepharose beads were released by addition of SDS-sample buffer at 95 °C for 10 min. Samples were analyzed on Tris-Tricine gels[56] followed by autoradiography. Loading was normalized according to the signal of [^35S]-labelled nascent Pgk1 in the total prior to crosslinking. Relative crosslinking efficiencies between nascent Pgk1-100 and Zuo1 or Ssz1, respectively were determined as follows. For each biological replicate, band intensities of non-crosslinked nascent Pgk1-100 and of Pgk1-100 crosslink products (XL-Zuo1 or XL-Ssz1) was determined on a single autoradiograph for wild type RAC and the different mutant variants of RAC. The crosslinking efficiency (XL-Zuo1/Pgk1-100 or XL-Ssz1/Pgk1-100) of each sample was calculated and subsequently the ratio of XL-Zuo1/Pgk1-100 or XL-Ssz1/Pgk1-100 in the presence of wild type RAC was set to 1 in order to normalize the biological replicates (see Fig. 3c,d). The original data are provided as a Source Data file.
For complementation experiments translation reactions were performed in either ∆ssb1∆ssb2 or ∆ssb1∆ssb2∆zuo1∆ssz1 translation extract as indicated. Complementation with purified Ssb1 was performed by adding His6-tagged ScSsb1 at a final concentration of 2 µM to the translation reaction prior to the addition of mRNA. Ribosome-free cytosolic extract of various mutant yeast strains for complementation experiments as indicated in Results and Figure Legends was generated as follows. The A260 of a total cell extract prepared by the glass beads method (see above) was determined, and the total cell extract was subsequently adjusted to a final concentration of 800 mM KOAc. […]

[2] = tested on: ribosomes; assay: ribosome-binding assay; set-up: species or system Saccharomyces cerevisiae
Method: Yeast strains were grown to early log phase on YPD, prior to harvest cycloheximide was added to a final concentration of 100 µg/ml, and subsequently cells were collected via centrifugation at 5000 g. Cell pellets were resuspended in ribosome-binding buffer (20 mM Hepes/KOH pH 7.4, 2 mM Mg(OAc)2, 120 mM KOAc, 100 µg/ml cycloheximide, 2 mM DTT, 1 mM PMSF, protease inhibitor mix) and total cell extracts were prepared by the glass beads method. After a clearing spin at 20.000 g, each 60 µl of the total glass beads extract (A260 between 80 and 100 mAU) was loaded onto a 90 µl sucrose cushion (25% sucrose, 20 mM Hepes/KOH pH 7.4, 120 mM KOAc, 2 mM Mg(OAc)2, 2 mM DTT, 1 mM PMSF, protease inhibitor mix). After centrifugation at 400.000 g at 4 °C for 25 min the cytosolic supernatant was collected and the ribosomal pellet was resuspended in 300 µl ribosome-binding buffer. Aliquots of the total cell extract, cytosolic supernatant, and resuspended ribosomal pellets were precipitated by addition of TCA (trichloroacetic acid) to a final concentration of 5%. TCA pellets were dissolved in SDS-sample buffer and were analyzed on 10% Tris-Tricine gels followed by immunoblotting.

[3] = tested on: nascent Pgk1 chains of 50–150 residues; assay: crosslinking to ribosome-bound nascent chain; assay type: binding, Saccharomyces cerevisiae; conditions: Δssb1Δssb2 translation extract (Ssb absent); BS3
Source text: as §1, §2

[4] = tested on: nascent Pgk1-40; assay: crosslinking to ribosome-bound nascent chain; assay type: binding, Saccharomyces cerevisiae; conditions: wild type translation extract; BS3
Source text: as §1, §2

[5] = tested on: nascent Pgk1-45; assay: crosslinking to ribosome-bound nascent chain; assay type: binding, Saccharomyces cerevisiae; conditions: wild type translation extract; BS3
Source text: as §1, §2

[6] = tested on: nascent Pgk1-50; assay: crosslinking to ribosome-bound nascent chain; assay type: binding, Saccharomyces cerevisiae; conditions: wild type translation extract; BS3
Source text: as §1, §2

[7] = nanoDSF thermal stability of RAC core complexes; assay type: physicochemical, Saccharomyces cerevisiae; conditions: 20 mM Hepes/KOH pH 7.5, 200 mM KCl, 5 mM MgCl2, 1 mM DTT, 20 to 90 °C at 1.5 °C/min, 330/350 nm, no peptide, three measurements shown
Method: The melting temperature of ScSsz1-Zuo1N, ScSsz1-Zuo1NΔLP or ScSsz1mut-Zuo1NΔLP with or without the LP-peptide (Peptide Specialty Laboratories GmbH, Heidelberg) were determined using the Prometheus NT.48 nanoDSF system using nano-DSF grade capillaries (NanoTemper Technologies GmbH). The measurements were performed in 20 mM Hepes/KOH pH 7.5, 200 mM KCl, 5 mM MgCl2, 1 mM DTT. The LP-peptide, which was dissolved in DMSO, was pre-diluted in the above buffer such that the final DMSO concentration in the experiment was below 0.5%. DMSO diluted in the same way was added to the negative control. Intrinsic protein fluorescence was measured continuously at 330 nm and 350 nm with a temperature gradient ranging from 20 to 90 °C at a rate of 1.5 °C/min. […]
(a-b) NanoDSF analysis of Ssz1-Zuo1N (blue) and Ssz1-Zuo1NDLP (orange) in a and Ssz1-Zuo1NDLP wit hout t he LP-pept ide (orange) or wit h t he LP-pept ide (blue) in b. Three measurements are shown.
Source data are provided as a Source Dat a f ile.
(c) Residues (L439S/K440P/I448F/G495K) mutated in Ssz1mut to block substrate binding to Ssz1-SBDb (cyan) are in stick representation (upper panel). Zuo1N is shown in orange a nd the LP-motif in yellow. Multiple sequence alignment of Hsp70 homologs (lower panel) wit h the mutations highlighted in yellow. The alignment is colored as in Fig. 2a. […]

Ssb-ΔC23
crosslink to nascent Pgk1-100 ([1]; Ssb-ΔC23 translation extract): no crosslink between Ssb-ΔC23 and Pgk1-100 was detected
ribosome association ([2]; Ssb-ΔC23 translation extract, supernatant/pellet, immunoblot): not ribosome-associated but fully recovered in the supernatant fraction
ribosome binding ([2]; total cell extract, supernatant/pellet, immunoblot): fully recovered in the cytosol

B1: Zuo1: J-domain protein (Hsp40), RAC subunit (protein)
chain: MFSLPTLTSDITVEVNSSATKTPFVRRPVEPVGKFFLQHAQRTLRNHTWSEFERIEAEKNVKTVDESNVDPDELLFDTELADEDLLTHDARDWKTADLYAAMGLSKLRFRATESQIIKAHRKQVVKYHPDKQSAAGGSLDQDGFFKIIQKAFETLTDSNKRAQYDSCDFVADVPPPKKGTDYDFYEAWGPVFEAEARFSKKTPIPSLGNKDSSKKEVEQFYAFWHRFDSWRTFEFLDEDVPDDSSNRDHKRYIERKNKAARDKKKTADNARLVKLVERAVSEDPRIKMFKEEEKKEKERRKWEREAGARAEAEAKAKAEAEAKAKAESEAKANASAKADKKKAKEAAKAAKKKNKRAIRNSAKEADYFGDADKATTIDEQVGLIVDSLNDEELVSTADKIKANAAGAKEVLKESAKTIVDSGKLPSSLLSYFV
crosslink to nascent chains of 50–150 residues [3]: efficient crosslinks
crosslink to nascent Pgk1-40 [4]: most efficiently crosslinked to Pgk1-40
crosslink to nascent Pgk1-45 [5]: formed crosslinks with these short nascent chains
crosslink to nascent Pgk1-50 [6]: below the detection limit
crosslinking of Zuo1 to nascent Pgk1 when RAC or Ssz1 is absent from ribosomes ([1]; Fig. 1e set-up): strongly enhanced
contact of Zuo1 with nascent Pgk1-100 when Ssz1 was absent or not in a stable complex ([1]; Δzuo1Δssz1Δssb1Δssb2 RNCs complemented with ribosome-free extracts): remained in contact with Zuo1

B2: Ssz1: Hsp70 homolog, RAC subunit (protein)
chain: MSSPVIGITFGNTSSSIAYINPKNDVDVIANPDGERAIPSALSYVGEDEYHGGQALQQLIRNPKNTIINFRDFIGLPFDKCDVSKCANGAPAVEVDGKVGFVISRGEGKEEKLTVDEVVSRHLNRLKLAAEDYIGSAVKEAVLTVPTNFSEEQKTALKASAAKIGLQIVQFINEPSAALLAHAEQFPFEKDVNVVVADFGGIRSDAAVIAVRNGIFTILATAHDLSLGGDNLDTELVEYFASEFQKKYQANPRKNARSLAKLKANSSITKKTLSNATSATISIDSLADGFDYHASINRMRYELVANKVFAQFSSFVDSVIAKAELDPLDIDAVLLTGGVSFTPKLTTNLEYTLPESVEILGPQNKNASNNPNELAASGAALQARLISDYDADELAEALQPVIVNTPHLKKPIGLIGAKGEFHPVLLAETSFPVQKKLTLKQAKGDFLIGVYEGDHHIEEKTLEPIPKEENAEEDDESEWSDDEPEVVREKLYTLGTKLMELGIKNANGVEIIFNINKDGALRVTARDLKTGNAVKGEL
modifications: left off: His6-SUMO, N-terminal, state not stated
notes: Hsp70 homolog, RAC subunit
crosslink to nascent chains of 50–150 residues [3]: efficient crosslinks
crosslink to nascent Pgk1-40 [4]: formed crosslinks with these short nascent chains
crosslink to nascent Pgk1-45 [5]: most efficiently crosslinked to Pgk1-45
crosslink to nascent Pgk1-50 [6]: below the detection limit
localization of Ssz1 in RAC-∆N49 ([2]; total cell extract): localized to the cytosol
localization of Ssz1 in wild type, RAC-∆N8, or RAC-∆N16 ([2]; total cell extract): ribosome-bound

B3: RAC core complex: ScSsz1 with ScZuo1N (residues 1-50) (protein)
chain 1: B2 chain
chain 2: MFSLPTLTSDITVEVNSSATKTPFVRRPVEPVGKFFLQHAQRTLRNHTWS
modifications: left off: His6-SUMO, N-terminal, state not stated | His6-MBP, N-terminal, cleaved
melting temperature (thermal stability of RAC core complex) [7]: 52.9 °C

B4: Ssz1mut: Ssz1 with L439S/K440P/I448F/G495K in the peptide binding groove (protein)
chain: B2 chain with L439S, K440P, I448F, G495K
contact of nascent Pgk1-100 with Ssz1mut compared to Ssz1 ([1]; RACmut-ΔN8 (Zuo1-ΔN8/Ssz1mut) vs RAC-ΔN8): impaired; also recorded: strongly reduced
